Measured values published in US20130058952A1 (UNIVERSIT T DUISBERG ESSEN, published 2013).

Legend:
[1] = biological target: T1, glycoprotein B (gB) of HSV-1 strain F on infected Vero cells (Herpes simplex virus type 1, strain F, UniProt P06436 30-903); experiment: flow cytometry on HSV-1 F infected Vero cells
T1 construct: whole, on cells; also called HSV-1 F; Wild-type strain F

[2] = biological target: T1, glycoprotein B (gB) of HSV-1 strain F …; experiment: cell-based or functional assay
[3] = biological target: T1, glycoprotein B (gB) of HSV-1 strain F …; experiment: flow cytometry, equilibrium binding to gB on HSV-1 F infected Vero cells, KD from nonlinear regression fit
[4] = biological target: T1, glycoprotein B (gB) of HSV-1 strain F …; experiment: flow cytometry on HSV-infected Vero cells (FIG. 5)
[5] = biological target: T2, glycoprotein B (gB) of HSV-2 strain G on infected Vero cells (Herpes simplex virus type 2, strain G); experiment: flow cytometry on HSV-2 G infected Vero cells
T2 construct: whole, on cells; also called HSV-2 G

[6] = biological target: T2, glycoprotein B (gB) of HSV-2 strain G …; experiment: flow cytometry, equilibrium binding curves on HSV-2 G infected Vero cells
[7] = biological target: T3, duotope 179YSQFMG184-βA-300FYGYRE305; experiment: peptide and duotope microarray on glass slides, mAb 2c, fluorescence laser scan, signal intensity (LU)
T3 construct: also called YSQFMG-βA-FYGYRE

[8] = biological target: T4, duotope 186FED188-βA-βA-300FYGYRE305; experiment: as above
T4 construct: also called FED-βA-βA-FYGYRE

[9] = biological target: T5, truncated HSV-1 glycoprotein B gB(436-642) (Herpes simplex virus type 1, strain 17+, UniProt P10211 436-642); experiment: indirect immunofluorescence on transfected COS-1 cells
T5 construct: range 436-642

[10] = biological target: T6, truncated HSV-1 glycoprotein B gB(1-223) (Herpes simplex virus type 1, strain 17+, UniProt P10211 31-223); experiment: as above
T6 construct: range 31-223

[11] = biological target: T7, truncated HSV-1 glycoprotein B gB(1-130) (Herpes simplex virus type 1, strain 17+, UniProt P10211 31-130); experiment: as above
T7 construct: range 31-130

[12] = biological target: designed 12-mer peptide PFYGYRE-G-FEDF; experiment: cellulose-bound peptides probed with MAb 2c, chemiluminescence
[13] = biological target: T1, glycoprotein B (gB) of HSV-1 strain F …; experiment: flow cytometry competition on HSV-1 infected Vero cells against 100 nM mAb 2c
[14] = biological target: T1, glycoprotein B (gB) of HSV-1 strain F …; experiment: cell-based or functional assay; remark: listed apart in the source

Binder | EC50 (read off the curve) [1] [nM] | concentration [nM] required for 50% neutralization of 100 TCID50 [2] [nM] | concentration [nM] required for 100% neutralization of 100 TCID50 [2] [nM] | Kd [3] [nM] | other results
humanized mAb h2c-V2 (antibody, V domains shown, also called hu2c-V2) VH: QVTLKESGPALVKPTQTLTLTCTFSGFSLSTSGMSVGWIRQPPGKALEWLAHIWWNNDKYYKPALKSRLTISKDTSKKQVVLTMTNMDPVDTATYYCARIYYGYRPYAMDYWGQGTLVTVSS VL: DIVMTQTPLSLPVTPGEPASISCRSSQSIVHSNGNTYLEWYLQKPGQSPQLLIYKVSNRFSGVPDRFSGSGSGTDFTLKISRVEAEDVGVYYCFQGSHVPWSFGQGTKVEIKR | ~20 | 5.1 | 15.6 | 21.4 | fold lower affinity in comparison to mAb 2c [4]: 2 fold
2c-Fab (Fab, V domains shown, also called Fab-fragment of mAb 2c; monovalent 2c-Fab fragment) VH: QVTLKESGPGILLPSQTLSLTCSFSGFSLSTSGMSVGWIRQPSGKGLEWLGHIWWNNDKYYKPALKSRLTISKDTSNKQVFLKIASVVTADTATYYCARIYYGYRPYAMDYWGQGTSVTVSS VL: DVLMTQTPLSLPVSLGDQASISCRSSQSIVHSNGNTYLEWYLQKPGQSPKLLIYKVSNRFSGVPDRFSGSGSGTDFTLKISRVEAEDLGVYYCFQGSHVPWSFGGGTKLEIKR |  |  |  |  | EC50 (read off the curve) [5]: ~20 nM; Kd [6]: 17.7 nM
murine monoclonal antibody (mAb) 2c (antibody, V domains shown, also called 2c IgG; 2c-IgG) VH: QVTLKESGPGILLPSQTLSLTCSFSGFSLSTSGMSVGWIRQPSGKGLEWLGHIWWNNDKYYKPALKSRLTISKDTSNKQVFLKIASVVTADTATYYCARIYYGYRPYAMDYWGQGTSVTVSS VL: DVLMTQTPLSLPVSLGDQASISCRSSQSIVHSNGNTYLEWYLQKPGQSPKLLIYKVSNRFSGVPDRFSGSGSGTDFTLKISRVEAEDLGVYYCFQGSHVPWSFGGGTKLEIKR |  |  |  |  | binding result [7]: binds; binding result [8]: binds; binding result [9]: no binding; binding result [10]: no binding; binding result [11]: no binding; binding result [12]: binds
2c-F(ab′)2 (other, also called F(ab′)-2-fragment; F(ab)2-fragment of mAb 2c) VH: QVTLKESGPGILLPSQTLSLTCSFSGFSLSTSGMSVGWIRQPSGKGLEWLGHIWWNNDKYYKPALKSRLTISKDTSNKQVFLKIASVVTADTATYYCARIYYGYRPYAMDYWGQGTSVTVSS VL: DVLMTQTPLSLPVSLGDQASISCRSSQSIVHSNGNTYLEWYLQKPGQSPKLLIYKVSNRFSGVPDRFSGSGSGTDFTLKISRVEAEDLGVYYCFQGSHVPWSFGGGTKLEIKR |  |  |  |  | EC50 (read off the curve) [5]: ~8 nM; Kd [6]: 8.8 nM
humanized mAb h2c-V4 (antibody, V domains shown, also called hu2c-V4) VH: QVTLKESGPALVKPTQTLTLTCTFSGFSLSTSGMSVGWIRQPPGKALEWLAHIWWNNDKYYKPALKSRLTISKDTSKKQVFLTMTNMDPVDTATYYCARIYYGYRPYAMDYWGQGTLVTVSS VL: DVVMTQTPLSLPVTPGEPASISCRSSQSIVHSNGNTYLEWYLQKPGQSPQLLIYKVSNRFSGVPDRFSGSGSGTDFTLKISRVEAEDVGVYYCFQGSHVPWSFGQGTKVEIKR | ~10 | 3.7 | 7.8 | 13.7 | 
humanized mAb h2c-V3 (antibody, V domains shown, also called hu2c-V3) VH: QVTLKESGPALVKPTQTLTLTCTFSGFSLSTSGMSVGWIRQPPGKALEWLAHIWWNNDKYYKPALKSRLTISKDTSKKQVFLTMTNMDPVDTATYYCARIYYGYRPYAMDYWGQGTLVTVSS VL: DIVMTQTPLSLPVTPGEPASISCRSSQSIVHSNGNTYLEWYLQKPGQSPQLLIYKVSNRFSGVPDRFSGSGSGTDFTLKISRVEAEDVGVYYCFQGSHVPWSFGQGTKVEIKR | ~10 | 3.3 | 7.8 | 11.4 | IC50 (read off the curve) [13]: ~100 nM
humanized mAb h2c-V1 (antibody, V domains shown, also called hu2c-V1; mAb hu2c-V1) VH: QVTLKESGPALVKPTQTLTLTCTFSGFSLSTSGMSVGWIRQPPGKALEWLAHIWWNNDKYYKPALKSRLTISKDTSKNQVVLTMTNMDPVDTATYYCARIYYGYRPYAMDYWGQGTLVTVSS VL: DIVMTQTPLSLPVTPGEPASISCRSSQSIVHSNGNTYLEWYLQKPGQSPQLLIYKVSNRFSGVPDRFSGSGSGTDFTLKISRVEAEDVGVYYCFQGSHVPWSFGQGTKVEIKR | ~10 | 3.7 | 7.8 | 12.8 | inhibition of HSV-1 F cell-to-cell spread in Vero cell monolayers [14]: 500 nM
